Biological target: the molecule itself
Test: NMR relaxation

B1: Smad5 MH1 domain (wild type) (domain or fragment, Homo sapiens)
chain: GPSFTSPAVKRLLGWKQGDEEEKWAEKAVDALVKKLKKKKGAMEELEKALSSPGQPSKCVTIPRSLDGRLQVSHRKGLPHVIYCRVWRWPDLQSHHELKPLDICEFPFGSKQKEVCINPYHYKRVESPVLPP
Which Kd does the source give for B1 here?
The Kd was 8.3 ± 1.5 mM.

Source: PMC7810915 (Computational and Structural Biotechnology Journal, 2019)
